Results taken from patent US20250277003A1 (OSAKA UNIVERSITY, published 2025).

Experiments:
BtCoV BM48-31 spike RBD = BtCoV BM48-31 spike RBD (BtCoV BM48-31); experiment: bead flow cytometry
WIV1-CoV spike RBD = WIV1-CoV spike RBD (WIV1-CoV); experiment: bead flow cytometry

B1: mAb CR3022 (antibody, V domains shown)
VH: QMQLVQSGTEVKKPGESLKISCKGSGYGFITYWIGWVRQMPGKGLEWMGIIYPGDSETRYSPSFQGQVTISADKSINTAYLQWSSLKASDTAIYYCAGGSGISTPMDVWGQGTTVTVSS
VL: not shown
gMFI (BtCoV BM48-31 spike RBD): 72 | gMFI (WIV1-CoV spike RBD): 22300
